According to patent US20220057408A1:

Target: CD3 (Homo sapiens (Human)) (UniProt P07766)
Assay: IHC on tissue (human tonsil), 1ug/mL primary antibody, detected with Goat Anti-rabbit-HRP/DAB; 6 ROIs, 3 tissues, 95% CI for the mean; P=0.000 against H4K4-E

- Staining Intensity by ImageJ (mean): 62
Substance: rabbit anti-CD3(SP162) antibody (unmodified)
